The source of these data is the DeepSol protein solubility set.

The series in a line: soluble on expression in E. coli; label from the status in PepcDB or PDB records.
Turning to “MGSDKIHHHHHHMFQYFPTNYVWSLSAMIALTHGGQIGEVDQMCAPLVDAARAGNDPGTLAFFNAWKSGADKLAELAEEDKSGGRLLSAGEKLGRAALYYIIAERMQAHDFDGRLALYKHSLDVFLEGVRLARENCERIEIPYQDRHISGLYVRAVGVQGRAPVVVVMNGLDSTKEMLYRSCITSYLSRRGVAVLLVDQPGTGEALRLQKLHAIPQTEIWASKIVDYLQARTDIDPVRIGALGVSLGGYYAPRAVAFEPRFAAGAVWGANHDWREVQKRRLAREGENPVPHYWKHVEWVFGASDLDDFMQCAEAMHLNGVLDRIKVPFLVTHGENDRQIPVQYAHQTYEQLANSPRRELKIFTAREGGVEHSSLDNPTNAGSYIADWLAEQLHGTTA”, the “soluble on expression in E. coli” value is recorded as “not soluble”. Then “MSLNRAFRREQYARMVALSEPLIADYLGVRLPEPVSRIFVFDRREWLEANIVSFSQLFRPIEEMYEKNGGGRGALGVLMNDVSSKLLGVQIGGLLGYLAQRVLGQYDLSLLSAEATGGSLYFVEPNIARVQQQLGLSDEDFRLWITLHEMTHAFEFEAYPWVRTYFRELLEQNFALVSGQMLSSGNSLVDMLMRLLQGEGHHHHHH”, with “not soluble”; and “MLLDFPHGQFGFTNSCIIAVIWLSLSPTLNRGQLNLDRFKFWLPTSQLLVLDVCLFDAFALEHHHHHH”, with “not soluble”; and “MSLVFDTHLHTLFSTDSKMNIEEAIDAGEKKNLGIIITEHIDLNYPVKGEFVFDIDKYFKEYNKYRSNKVLLGVEIGMGEEIKEQNKSINDKYEFDYVLGSIHLLNGLDLYEKTIYKSSPKKEVFEMYFKTMLACLRCHEYIDSLAHIDYISRYAAYHDGEIYYNEYSDYIDEVLKFIVDREIVIEINTRRLNKKEVCENLMPIYKRYSELGGRFVTIGSDSHYKDSIGLNFKNALKMAENCNLKPVFFEKRLMKYAEGHHHHHH”, with “soluble”. Next, “MGNQQCNWYGTLYPLCVTTTNGWGWEDQRSCIARSTCAAQPAPFGIVGSG”: “soluble”; “MQLALVLSELGEYQVSNQWLLKIIHDLDETMYDCLYFLANNYACLGLFREATQYAEQYLTCESDGEFADDAADLLELLKLDRHDVSEEQEQLITMQERARHLLEQERFAEAIEALEAIVSRYPEFWSAHNNLALAYFYNGDVERAKQKLLEVLKRDPGNLHALCNALVFAYYLHDQEEVAALCETLASVYPFFREHQYKLGATFALVGRFDSAFRWLYRLYKNGFDGDGPFYYWLAYSAYHIGHESLARQVWETLTTLHPEKRGELEHHHHHH”: “not soluble”. Then “SMKFQARVLTLYPEMFPGFLGCSLAGQALKQGIWSLETVQIRDFALDKHHSVDDTPAGGGAGMVMRADVLAAALDSCPNDSPRLLMSPRGRLLNQAYARSLARSSGVTLVCGRFEGVDERIIEARELEEVSIGDYILSGGETAALVLLDAIVRLLPGVMGNEISAKCESFENGLLEHPQYTRPAVFEGRGIPPVLTSGHHKAIANWRQQQAESLTRQRRPDLYALYNKNRQKT”, with “soluble”; and “MPEPHPAPQPYTVAALYQFRALPDPAALRAELLALGERLELCGTLIVADEGINGTVAGSAAAIAELHAFLLASGFDRLEYKESQASEKPFKRYKVRLKKEIVTLGVPVAPREQVGTYLDPQAWNDLLADPEVIVVDTRNRYEVKAGTFQGAVDPEIDSFREFPAWVDEHLAGAEGKKIAMFCTGGIRCEKSTSLLLQKGFQDVYHLKGGILKYLEDVPQAQSRWDGECFVFDGRVTVGHGLQEGDAVMCHSCGWPLTAQERAHPQFEEGVSCEHCFDETTDVQKAAFRERQRMYEAGHLTLEHHHHHH”, with “not soluble”.

On to “MWRCIVVISSDRRPEMPFKPLVTAGIESLLNTFLYRSPALKTARSRLLGKVLRVEVKGFSTSLILVFSERQVDVLGEWAGDADCTVIAYASVLPKLRDRQQLAALIRSGELEVQGDIQVVQNFVALADLAEFDPAELLAPYTGDIAAEGISKALRGGAKFLHHGIKRQQCYVAEAITEEWRMAPGPLEVAWFAEETAAVERAVDALTKRLEKLEAK”, for which the “soluble on expression in E. coli” value is given as “not soluble”. Then “MSAEQFVGRWKLVESENFEDYLKEVGVGLLLRKAACAAKPTLEIKVNGNKWHVNQLSTFKNTTLEFTLGVEFDETTPDGRQFKSTITIEDGKVVHVQKRIKDSDHDSVITRWFEGEKLITTLQSGSVISRRAYIRE”, with “not soluble”; and “MGSDKIHHHHHHMINAKNIRFSYPRQRSLFESLNLDLPKGSITGLLGRNGEGKTTLLKLLCGQLLRKDGNLTVLTEDPRHRSVKFLSKVFLLQEEVTCPNVSIRDYFRMITPFYPSYSPEVAQEIIIAFDLNWDMKLGKVSQGQKKKAVIALALSLRTPLLLMDEPTNGLDIPSKSAFRRLMARYITEEQTVIISTHQVRDLEQIIDRIVMMDKNAIVCNRSVAELSEQFAFRQVVPGDKPIYKEGSTMGEVGVYENTTGEETPFSMELFFNGMIAEREVFNRVLNR”, with “not soluble”; and “MSLCRVLRVKHSSYYDWLSRDISEQQIHRNHCELLVKAAHSETHERYGVERLHAHLSEQGHNISPYMVRSIKEEYSIKCRRHKRFKVTTDSNHNKLVYPNVLDQEFDASRPNQAWASDITYIWTLEGWLYLAGVKDLYTKELVGYAINKRMTADLVCKALNMAIKNKQPSKGLVVHSDRGSQYCSHAYHKIIKQHQFTGSMSGKGNCFDNAPIESFWGILKNELVYHQDYKTRFAAIRDIIGYIELYYNQTRIQKGLGYKSPRQVWFDYYRQAAEGHHHHHH”, with “soluble”. “MSDLHIPGTQSTPAIQGDWQAGRLSMQGDSYPENSYELFGQVIDWVERFLADGQRPLELDLRLLYLNTSSIKAMMDILDLLEEAHQGGRPVSLRWHYDRRNERVAELAEEFREDCSFPFAIQAHDE”: the “soluble on expression in E. coli” value was “not soluble”. Next, “MGSDKIHHHHHHMAFKQRREYLFLYTVKDANPNGDPLNENHPRYDGDTAQAMASDVRVKRTTRDEWVRSGEIVFVDGEPKSLKTRFEELKKITGKSDAREIMKQCLDVRLFGVTFALGKEAFAWTGPVQFKWGRSLHSASFEFVQGTAAFATERGGADNRQRSFRNEYLVPFALMGVYAIANQYASQYTDAADEDLQRMLDGLWQGTDNLITRSKNEHKSRLLIEITYKEDFNGKIGALDDKVTLLDREGKVMDREKQKALRSLQEVSLDIGALLKSMELKQEQIAGIRVITDGEINIIQEEQLKGISSIEVR”: “not soluble”. “MERVAIFIDGSNLYKGLVQHLGSDYRLNFVEFITLLTAGRKLLRAYYYNAPLPPEDPAAKAHQSFLNYLKRVPYVTVRLGRLERRADGFVEKGVDIQIAVDMLRLAFVNAYDIAVLVSGDGDFAEVVRVVQDLGKQVENTTFHALSSHRLAQQADHFYPLDDFPWERLRAQVSPASPEEEA”: the “soluble on expression in E. coli” value was “soluble”. Then “SADIYIMGHRYPDMDALGSAFGVARLASFNNRKAWIVLDENEIIPDVKRVLEAIKEYPELEERIISPKEAMKRKKESSLLVMVDYHKPSLSISQELYERFDKVVIIDHHRRGDEFPAKPLLSYIESSASSASELVTELIEYQSNSANKLQAFEATMMLAGIVVDTKSFNTRTTARTFDVASYLRTCGADSSLVQYLLSSDL”, with “not soluble”; and “MSDPLHVTFVCTGNICRSPMAEKMFAQQLRHRGLGDAVRVTSAGTGNWHVGSCADERAAGVLRAHGYPTDHRAAQVGTEHLAADLLVALDRNHARLLRQLGVEAARVRMLRSFDPRSGTHALDVEDPYYGDHSDFEEVFAVIESALPGLHDWVDERLARNGPS”, with “soluble”. Next, “MQFLSIGVNDDADSLKEYLINELARNNKKNINYLVRDVADSEGSTSIICSLADNDAPSDMNSHLYKELVLNVSNALATFIIDKYEEKLIYRIINSNYCYFTQAERKEIQRLTLAIIKNEERNLLNSFFQIRRKNIIIKRLLEYFESSNTVILDGFVNFRLKDYMKDLEEIVEKAVDDFLMEREYREFIRLLRYFVDIQEPKFNAVHIIAGYDNKYVLLDENKNEITNECLQEFVNDIPEGEINYDDLLVSSLITMAPRKLVIHGAKSFRNKELLETIKNVFWGKVVICSECELCMVNMVRSENKSQI”: “not soluble”; “MIVRGGGDLATGVIQKLWHVGFKILVLETECPLAIRRTVSVCDAIFQKEQRVEDLVAVRITSLKDCAKCWQQNKLPVFVDQTASAIQQLKPLIVIDAILAKKNLGTHRGMAPITIALGPGFSAPQDVDVVIETMRGHRLGRLYFEGTALPNTGIPGEIGGKSAERVVHAPASGQVTHLKNIGDLVLKGEALFLIDQVPVYSPLTGTLRGLISEKVTCYQGLKCADVDPRPVEKVDCLTISDKARALGGAVLEAIFMIGRRKNVL”: “not soluble”. “MSLAERLEIMVPSGSYVSFMRNTVTPEFNKLYPEVNLVVSNDEQLDTRMAAGDNPNVYIGVFGYQPAKLAKLGKLAYLDKFPGFAELNERIDPHFLRENFGRTYYIPWNATTQMMIYNKELFAEAGLDPERPPATWDEFLLAAEKISALPPRSDGSKVYGTVFWNDVLSFGSWYWNLLTPMYYNVNQGQYQLLNRYGTDIVFDRPDANMAQFMRTMQQAQRFAPLTMEKSFFSRNIGMWLQFGFGWKATLSSAAERPMVVGQDVAIAPIPVQTKGDIHYSVLDGRAIMIFKDEARKEQLSWALLNLLMRDDINLQANIALGQLPTLKALQDAPYFQSAEAQPFVQQLQHAILSEPFANAMEVANIILANYSKVVLKGEISPEQAVATSAQAARQLLNEHEGHHHHHH”: the “soluble on expression in E. coli” value was “soluble”. As for “GMMNDYLNFLDGRVSVRRFDPDAVLPNDLIKDMLEHASYAPSGNNFQPWRVVVVKNKNKQEDLKKLAALQPQVATASAVFLLFGDENAYDLTWWQEFHVQKGIITKDEAAARAERIRQYFDLHPEDKETQGLRLDVGLFAMNLMQVVRVYGYDSVPMRGVDFDAIKTYLDMPNGWEPILMLPVGKALQAGNPHVRKSVAEFAEIIE”, the “soluble on expression in E. coli” value was “soluble”. Next, “TPGVEKRVIWAPGGYERRTPYALVYLHGFSATSEEIRPVPDHIAQALGANLVFTRLQGHGRGDDAMAQGSASGWMRDTAEALAAGRAVGERVIVIATSTGATLAAAAALDPEMSADVAAMILVSPNFGVNDPLAFVPTLPGARYWLPRLMGDARDVTGPDADKNTYWTTRYSWSALVPMSVLVQAVVSLDFAQARVPALFWFSDQDRVVRADLTRALAGRWGGPVRVEAVTMGPGDDPSSHVIAGDIMSPGQTDIAVAGMLAWLREQGI”: “not soluble”. For “ILGIKTLLAVYRLFGRKAFDLILKLVMRYYHFTGKSAREASEIYLQNLQRYAAQQNIALPKQLDSYHHLLSFGRTMLDKLAAWQGDFNVDNLTIHGQHHFEEMAQKKQGVLILGSHLGNIELCRALGRRHSHVKINALVFTQHAEQFNAVMKAVNPNSELNLIQVSSMGPDTAILLQQKIEQGEWVVIVGDRTSTSKENRVVWADFLGKPAPFPQGPFMLASVLKAPVYLLFGLRDDEANTPHFNVYFEHFSDQITLPRKERQQALEHVVQQYAHRLEHHTLQAPLQWYNFFNFWTLSNQPHDKQQ”, the “soluble on expression in E. coli” value is “not soluble”.
